Measured values: patent publication US20240011000

How the values were obtained:
[1] = test system: Br512 (villin headpiece HP47-Bst-LF fusion DNA polymerase) (Geobacillus stearothermophilus / Gallus gallus fusion)
[2] = test system: Bst-LF (DNA polymerase I large fragment) (Geobacillus stearothermophilus); details: RT-LAMP-OSD, G6D buffer, 65 C
Bst 2.0 DNA polymerase = Bst 2.0 DNA polymerase (UniProt P52026); details: RT-LAMP-OSD, 300 genomes, isothermal buffer, 65 C
Sequence of UniProt P52026 (P52026 297-876): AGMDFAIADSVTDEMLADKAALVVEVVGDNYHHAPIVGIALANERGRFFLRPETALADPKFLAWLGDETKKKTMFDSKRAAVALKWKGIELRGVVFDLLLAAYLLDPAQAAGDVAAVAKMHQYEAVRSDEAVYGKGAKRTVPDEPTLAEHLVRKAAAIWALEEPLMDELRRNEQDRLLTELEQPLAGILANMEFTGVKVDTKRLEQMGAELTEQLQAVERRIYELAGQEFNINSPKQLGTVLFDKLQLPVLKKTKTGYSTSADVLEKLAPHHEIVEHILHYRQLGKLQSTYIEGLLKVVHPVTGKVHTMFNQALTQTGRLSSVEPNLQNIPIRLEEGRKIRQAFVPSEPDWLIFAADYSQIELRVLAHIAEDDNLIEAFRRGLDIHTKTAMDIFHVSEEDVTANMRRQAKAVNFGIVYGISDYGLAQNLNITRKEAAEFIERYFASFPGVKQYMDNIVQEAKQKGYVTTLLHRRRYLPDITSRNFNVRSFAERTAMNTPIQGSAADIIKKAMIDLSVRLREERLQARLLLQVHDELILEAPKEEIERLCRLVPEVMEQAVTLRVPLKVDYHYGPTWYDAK

| Substance | activity (% assays positive) [1] | activity (% assays positive) [2] | activity (% assays positive) (Bst 2.0 DNA polymerase) |
| --- | --- | --- | --- |
| SARS-CoV-2 RNA, 6-Lamb target | 100 | 33 | 75 |
| SARS-CoV-2 RNA, NB (N gene) target | 80 | 16 | 25 |
